The target of this assay is EphA3 antigen (Homo sapiens (Human)) (UniProt P29320). Kind of assay: ELISA on EphA3 antigen.
UniProt P29320, sequence (P29320 21-541 limits assumed, form in doubt): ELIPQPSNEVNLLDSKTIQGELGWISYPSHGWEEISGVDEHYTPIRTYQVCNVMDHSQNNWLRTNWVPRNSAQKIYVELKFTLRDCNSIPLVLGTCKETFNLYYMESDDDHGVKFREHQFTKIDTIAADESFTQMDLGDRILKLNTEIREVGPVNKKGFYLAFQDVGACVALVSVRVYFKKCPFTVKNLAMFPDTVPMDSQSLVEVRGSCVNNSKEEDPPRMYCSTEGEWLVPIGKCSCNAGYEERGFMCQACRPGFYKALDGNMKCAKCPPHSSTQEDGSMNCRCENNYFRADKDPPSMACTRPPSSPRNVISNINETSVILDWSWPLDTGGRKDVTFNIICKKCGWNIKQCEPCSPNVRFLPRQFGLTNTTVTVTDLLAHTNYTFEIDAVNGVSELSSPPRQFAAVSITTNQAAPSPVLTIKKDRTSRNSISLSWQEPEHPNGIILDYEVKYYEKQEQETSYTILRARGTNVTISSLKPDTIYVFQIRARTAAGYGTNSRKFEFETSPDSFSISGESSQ

For the substance monoclonal antibody IIIA4, the AFFINITY is 2.5 nM.

The values are drawn from US8637016.
